This note sets out measurements from patent publication US20200362026A1 (INSTITUTE FOR RESEARCH IN BIOMEDICINE, published 2020).

Assay [1] addresses T1, human GM-CSF (granulocyte macrophage-colony stimulating factor) (human, UniProt P04141 18-144).
T1 construct: Soluble cytokine used in ELISA, SPR, TF-1 bioassay and immune complex formation; also called recombinant GM-CSF
Kind of assay: ELISA on GM-CSF. For orientation: ELISA stands for enzyme-linked immunosorbent assay.

Assay [2] deals with T1, human GM-CSF (granulocyte …). Kind of assay: cell-based or functional assay.
Assay [3] addresses T2, FcγRIIa (UniProt P12318 34-317, limits assumed).
T2 construct: whole, on cells; also called FcgRIIa; Fcγ receptor IIa
T2 sequence (looked up): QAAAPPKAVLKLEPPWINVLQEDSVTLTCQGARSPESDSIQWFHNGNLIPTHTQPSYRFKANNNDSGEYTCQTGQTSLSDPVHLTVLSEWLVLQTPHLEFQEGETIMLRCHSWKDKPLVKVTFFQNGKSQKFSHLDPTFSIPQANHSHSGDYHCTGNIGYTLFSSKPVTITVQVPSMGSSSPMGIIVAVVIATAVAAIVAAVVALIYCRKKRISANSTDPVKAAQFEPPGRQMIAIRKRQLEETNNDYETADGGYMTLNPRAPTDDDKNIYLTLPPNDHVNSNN
Kind of assay: flow cytometry, TZM-bl cells expressing FcγRIIa, mAb alone (w/o GM-CSF). The procedure:
(§1) Expression of specific FcγRs was assessed by staining TZM-b1 cells with FITC-conjugated anti-CD64 (anti-FcγRI), anti-CD32 (anti-FcγRIIa and anti-FcγRIIb) and anti-CD16 (anti-FcγRIIIa) antibodies (all from BD Pharmingen). Untrasfected and transfected TZM-b1 cells were washed with staining buffer (PBS with 10% Fetal Bovine Serum and 2 mM EDTA) and seeded in 96-well-plates at a density of 50,000 cells per well. […] The LALA versions of all antibodies and a mAb with a different specificity were included as controls. Samples were incubated at 37° C. for 30 min to allow the formation of immune complexes and then cooled down to 4° C. before adding them to TZM-b1 cells for 30 min. Cells were washed twice and stained with anti-human IgG Fcγ fragment specific F(ab′)2 fragment (Jackson ImmunoResearch). Samples were analyzed on BD FACSCanto (BD Biosciences) and median intensity fluorescence was analyzed and compared between samples.
(§2) To address the engagement of Fcγ receptors, immune complexes formed between GM-CSF and multispecific antibodies were tested for their capacity to bind to TZM-b1 cells expressing FcγRIIa and FcγRIIb receptors. Multispecific antibodies were mixed with 0.05 μg/ml of GM-CSF, or staining buffer. Samples were incubated at 37° C. for 30 min to allow the formation of immune complexes and then cooled down to 4° C. before adding them to TZM-b1 cells for 30 minutes. Cells were washed twice and stained with anti-human IgG Fcγ fragment specific F(ab′)2 fragment. Samples were analyzed on BD FACSCanto (BD Biosciences) and median intensity fluorescence was analyzed and compared between samples.
Background: A flow cytometer gives signals particle by particle.

In assay [4] the target is T3, FcγRIIb (UniProt P31994 43-310, limits assumed).
T3 construct: whole, on cells; also called FcgRIIb; Fcγ receptor IIb
T3 sequence (looked up): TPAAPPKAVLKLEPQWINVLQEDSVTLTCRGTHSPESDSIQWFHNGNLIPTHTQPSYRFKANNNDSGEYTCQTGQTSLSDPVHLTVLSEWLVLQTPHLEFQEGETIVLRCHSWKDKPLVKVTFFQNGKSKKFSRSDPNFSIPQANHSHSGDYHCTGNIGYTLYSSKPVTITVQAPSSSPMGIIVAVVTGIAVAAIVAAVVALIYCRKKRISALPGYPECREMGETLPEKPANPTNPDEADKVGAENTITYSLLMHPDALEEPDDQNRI
Kind of assay: flow cytometry, TZM-bl cells expressing FcγRIIb, mAb alone (w/o GM-CSF). The procedure:
as §1, §2

Assay [5] addresses T2, FcγRIIa. Kind of assay: flow cytometry, TZM-bl cells expressing FcγRIIa, immune complex with low GM-CSF. As to the method: as §1, §2
Assay [6] addresses T3, FcγRIIb. Kind of assay: flow cytometry, TZM-bl cells expressing FcγRIIb, immune complex with low GM-CSF. As to the method:
as §1, §2

Assay [7] concerns the target T2, FcγRIIa. Kind of assay: flow cytometry, TZM-bl cells expressing FcγRIIa, immune complex with high GM-CSF. The procedure: as §2
Assay [8] concerns the target T3, FcγRIIb. Put plainly: flow cytometry, TZM-bl cells expressing FcγRIIb, immune complex with high GM-CSF. The procedure:
as §1, §2

In assay [9] the target is T2, FcγRIIa. Put plainly: flow cytometry, TZM-bl FcγRIIa cells; average ratio of binding in presence and in absence of GM-CSF. The procedure: as §2
Assay [10] has as its target T3, FcγRIIb. Put plainly: flow cytometry, TZM-bl FcγRIIb cells; average ratio of binding in presence and in absence of GM-CSF. The procedure: as §1, §2
Assay [11] addresses T1, human GM-CSF (granulocyte …). Kind of assay: SPR; GM-CSF injected at 400, 200, 100, 50, 25 nM and buffer over Ts1GC1; 120 s association, 600 s dissociation. The procedure:
(§3) The kinetics of binding was determined by surface plasmon resonance (SPR). […] HEPES buffered saline (HBS) (10 mM HEPES, pH 7.4, 150 mM NaCl, 3 mM EDTA, 0.005% surfactant Tween-20) was used as running buffer. All injections were made at flow rate of 100 µl/min. […] Injection time and dissociation time were 120 s and 600 s, respectively. Each binding interaction of mAbs with GM-CSF was assessed using a ProteON XPR36 instrument (Biorad) and data processed with ProteOn Manager Software. Ka, Kd and KD were calculated applying the Langmuir fit model.
All multispecific antibodies were tested for binding to GM-CSF by ELISA.
For orientation: Surface plasmon resonance follows binding to a sensor surface in real time, without labels.

For assay [12] the target is unchanged. Put plainly: cell-based or functional assay. The source holds these as a separate data set.
The target is the same in assay [13]. Put plainly: ELISA on human GM-CSF. The procedure:
All antibodies were recombinantly produced as IgG1 by transient transfection of HEK 293 Freestyle Cells (Invitrogen) using polyethylenimine (PEI). The antibodies were then tested for binding to human GM-CSF by ELISA. […] The EC50 values (ng/ml) were determined by ELISA and calculated for every sample by nonlinear regression analysis using GraphPad Prism 5 software.

Assay [14] shares this target. Put plainly: SPR (ProteOn), mAb captured on protein A, GM-CSF as analyte, Langmuir fit. As to the method: as §3

T1 sequence (P04141 18-144 limits assumed): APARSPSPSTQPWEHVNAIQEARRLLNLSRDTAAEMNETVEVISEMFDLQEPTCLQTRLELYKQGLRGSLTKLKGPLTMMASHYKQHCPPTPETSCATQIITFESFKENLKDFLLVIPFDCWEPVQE

B1: Ts1GC1 trispecific antibody (antibody, human IgG1, kappa)
heavy: not shown
light: DIQMTQSPSTLSTSVGDRVTITCRASQNILNWLAWYQQKPGNAPNLLIYKASDLQSGVPSRFSGSGSGTEFTLTISSLQPDDFATYYCQHYNSYPLTFGGGTKVEIKRTVAAPSVFIFPPSDEQLKSGTASVVCLLNNFYPREAKVQWKVDNALQSGNSQESVTEQDSKDSTYSLSSTLTLSKADYEKHKVYACEVTHQGLSSPVTKSFNRGEC
notes: Trispecific hexavalent IgG1, construct type Ts1; specificities GCA21 + GCA7 + GCB59; also called TsGC1
Broadly, the EC50 is the concentration that produces a half-maximal response. Usually Kd stands for the free concentration of one partner at which half of the binding sites on the other are occupied at equilibrium, for simple one-to-one binding. A lower Kd goes with a tighter complex. In general, koff refers to a measure of how fast the partners let go of each other. High values mean a short-lived complex, low ones a long-lived complex. Broadly, the kon is a measure of how fast the partners come together. A lower kon goes with slow association. Consider B1, for which the EC50 in [1] is 0.027 µg/mL. For the same molecule, in assay [2], the “IC90 less stringent conditions (50 pg/ml GM-CSF, 1,000 TF-1/well)” value came out at 0.000352 µg/mL; the “IC90 more stringent conditions (500 pg/ml GM-CSF, 1,000 TF-1/well)” value was found to be 0.00296 µg/mL; the “IC90 stringent conditions (50 pg/ml GM-CSF, 10,000 TF-1/well)” value worked out at 0.000283 µg/mL; the “IC90 very stringent conditions (500 pg/ml GM-CSF, 10,000 TF-1/well)” value was 0.00281 µg/mL. In assay [3], this molecule had an MFI of 52400 MFI. Moreover, the MFI in assay [4] worked out at 350000 MFI. For the same molecule, the MFI in assay [5] came to 118000 MFI. Also, the MFI in assay [6] amounted to 528000 MFI. Also, the MFI in assay [7] was determined as 216000 MFI. This molecule also registered an MFI in assay [8] of 1.23e+06 MFI. For the same molecule, in assay [9], the “Average RATIO FcgRIIa” value was determined as 3.18 ratio. For the same molecule, the “Average RATIO FcgRIIb” value in assay [10] came out at 2.51 ratio. In addition, in assay [11], binding was put at a Kd of 0.0875 nM, the koff is 3.46e-05 s⁻¹ and the kon amounted to 395000 M⁻¹ s⁻¹.

B2: Namilumab (antibody, V domains shown)
VH: QVQLVQSGAEVKKPGASVKVSCKAFGYPFTDYLLHWVRQAPGQGLEWVGWLNPYSGDTNYAQKFQGRVTMTRDTSISTAYMELSRLRSDDTAVYYCTRTTLISVYFDYWGQGTMVTVSS
VL: DIQMTQSPSSVSASVGDRVTIACRASQNIRNILNWYQQRPGKAPQLLIYAASNLQSGVPSRFSGSGSGTDFTLTINSLQPEDFATYYCQQSYSMPRTFGGGTKLEIK
As to B2, in assay [12], the “fold greater concentration than Ts1GC2a, less stringent conditions” value worked out at 690 fold. Besides, in [13], the response was half-maximal at 0.0753 µg/mL (EC50). In addition, in assay [2], the “IC90 less stringent conditions (50 pg/ml GM-CSF, 1,000 TF-1/well)” value worked out at 0.177 µg/mL; the “IC90 more stringent conditions (500 pg/ml GM-CSF, 1,000 TF-1/well)” value stood at 1.97 µg/mL; the “IC90 stringent conditions (50 pg/ml GM-CSF, 10,000 TF-1/well)” value turned out to be 0.798 µg/mL; the “IC90 very stringent conditions (500 pg/ml GM-CSF, 10,000 TF-1/well)” value is 19.8 µg/mL. In assay [14], this molecule registered a Kd of 0.24 nM, a koff of 7.7e-05 s⁻¹ and a kon of 310000 M⁻¹ s⁻¹.
